Measured values published in PMC12416549 (2024).

T1: TNFR1 (Homo sapiens, UniProt P19438)
T1 chain: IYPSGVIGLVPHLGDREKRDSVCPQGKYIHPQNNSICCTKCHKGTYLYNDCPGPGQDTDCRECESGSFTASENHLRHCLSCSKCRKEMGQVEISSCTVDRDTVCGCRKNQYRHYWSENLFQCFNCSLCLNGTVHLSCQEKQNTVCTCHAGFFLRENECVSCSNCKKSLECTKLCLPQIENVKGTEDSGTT

B1: E5G (designed binder)
chain: SMEEGVEKAAKEYEKKKKEAIEKHLEKLKAKDKEAAERFLKELEEAAKEYAKDEAKTMSEEEAKRRAKKYKEKVLLSELSEEEQKEIKEAEEKLVRTILKYVEEAAK
B2: R65Y (designed binder)
chain: SMEEEVEKAAKEYEKKKKEAIEKHLEKLKAKDKEAAERFLKELEEAAKEYAKDEAKTMSEEEAKYRAKKYKEKVLLSELSEEEQKEIKEAEEKLVRTILKYVEEAAK
B3: E54G (designed binder)
chain: SMEEEVEKAAKEYEKKKKEAIEKHLEKLKAKDKEAAERFLKELEEAAKEYAKDGAKTMSEEEAKRRAKKYKEKVLLSELSEEEQKEIKEAEEKLVRTILKYVEEAAK
B4: E37M (designed binder)
chain: SMEEEVEKAAKEYEKKKKEAIEKHLEKLKAKDKEAAMRFLKELEEAAKEYAKDEAKTMSEEEAKRRAKKYKEKVLLSELSEEEQKEIKEAEEKLVRTILKYVEEAAK
B5: E22T (designed binder)
chain: SMEEEVEKAAKEYEKKKKEAITKHLEKLKAKDKEAAERFLKELEEAAKEYAKDEAKTMSEEEAKRRAKKYKEKVLLSELSEEEQKEIKEAEEKLVRTILKYVEEAAK
B6: E62C (designed binder)
chain: SMEEEVEKAAKEYEKKKKEAIEKHLEKLKAKDKEAAERFLKELEEAAKEYAKDEAKTMSEECAKRRAKKYKEKVLLSELSEEEQKEIKEAEEKLVRTILKYVEEAAK
B7: E14G (designed binder)
chain: SMEEEVEKAAKEYGKKKKEAIEKHLEKLKAKDKEAAERFLKELEEAAKEYAKDEAKTMSEEEAKRRAKKYKEKVLLSELSEEEQKEIKEAEEKLVRTILKYVEEAAK
B8: K107S (designed binder)
chain: SMEEEVEKAAKEYEKKKKEAIEKHLEKLKAKDKEAAERFLKELEEAAKEYAKDEAKTMSEEEAKRRAKKYKEKVLLSELSEEEQKEIKEAEEKLVRTILKYVEEAAS
B9: E89I (designed binder)
chain: SMEEEVEKAAKEYEKKKKEAIEKHLEKLKAKDKEAAERFLKELEEAAKEYAKDEAKTMSEEEAKRRAKKYKEKVLLSELSEEEQKEIKIAEEKLVRTILKYVEEAAK
B10: Y13S (designed binder)
chain: SMEEEVEKAAKESEKKKKEAIEKHLEKLKAKDKEAAERFLKELEEAAKEYAKDEAKTMSEEEAKRRAKKYKEKVLLSELSEEEQKEIKEAEEKLVRTILKYVEEAAK
B11: K29P (designed binder)
chain: SMEEEVEKAAKEYEKKKKEAIEKHLEKLPAKDKEAAERFLKELEEAAKEYAKDEAKTMSEEEAKRRAKKYKEKVLLSELSEEEQKEIKEAEEKLVRTILKYVEEAAK
B12: R65K (designed binder)
chain: SMEEEVEKAAKEYEKKKKEAIEKHLEKLKAKDKEAAERFLKELEEAAKEYAKDEAKTMSEEEAKKRAKKYKEKVLLSELSEEEQKEIKEAEEKLVRTILKYVEEAAK
B13: L76G (designed binder)
chain: SMEEEVEKAAKEYEKKKKEAIEKHLEKLKAKDKEAAERFLKELEEAAKEYAKDEAKTMSEEEAKRRAKKYKEKVLGSELSEEEQKEIKEAEEKLVRTILKYVEEAAK
B14: Y101F (designed binder)
chain: SMEEEVEKAAKEYEKKKKEAIEKHLEKLKAKDKEAAERFLKELEEAAKEYAKDEAKTMSEEEAKRRAKKYKEKVLLSELSEEEQKEIKEAEEKLVRTILKFVEEAAK
B15: K15H (designed binder)
chain: SMEEEVEKAAKEYEHKKKEAIEKHLEKLKAKDKEAAERFLKELEEAAKEYAKDEAKTMSEEEAKRRAKKYKEKVLLSELSEEEQKEIKEAEEKLVRTILKYVEEAAK
B16: D32N (designed binder)
chain: SMEEEVEKAAKEYEKKKKEAIEKHLEKLKAKNKEAAERFLKELEEAAKEYAKDEAKTMSEEEAKRRAKKYKEKVLLSELSEEEQKEIKEAEEKLVRTILKYVEEAAK
B17: I21L (designed binder)
chain: SMEEEVEKAAKEYEKKKKEALEKHLEKLKAKDKEAAERFLKELEEAAKEYAKDEAKTMSEEEAKRRAKKYKEKVLLSELSEEEQKEIKEAEEKLVRTILKYVEEAAK
B18: K23L (designed binder)
chain: SMEEEVEKAAKEYEKKKKEAIELHLEKLKAKDKEAAERFLKELEEAAKEYAKDEAKTMSEEEAKRRAKKYKEKVLLSELSEEEQKEIKEAEEKLVRTILKYVEEAAK
B19: K41A (designed binder)
chain: SMEEEVEKAAKEYEKKKKEAIEKHLEKLKAKDKEAAERFLAELEEAAKEYAKDEAKTMSEEEAKRRAKKYKEKVLLSELSEEEQKEIKEAEEKLVRTILKYVEEAAK
B20: A30M (designed binder)
chain: SMEEEVEKAAKEYEKKKKEAIEKHLEKLKMKDKEAAERFLKELEEAAKEYAKDEAKTMSEEEAKRRAKKYKEKVLLSELSEEEQKEIKEAEEKLVRTILKYVEEAAK
B21: A67C (designed binder)
chain: SMEEEVEKAAKEYEKKKKEAIEKHLEKLKAKDKEAAERFLKELEEAAKEYAKDEAKTMSEEEAKRRCKKYKEKVLLSELSEEEQKEIKEAEEKLVRTILKYVEEAAK
B22: E3A (designed binder)
chain: SMAEEVEKAAKEYEKKKKEAIEKHLEKLKAKDKEAAERFLKELEEAAKEYAKDEAKTMSEEEAKRRAKKYKEKVLLSELSEEEQKEIKEAEEKLVRTILKYVEEAAK
B23: E86M (designed binder)
chain: SMEEEVEKAAKEYEKKKKEAIEKHLEKLKAKDKEAAERFLKELEEAAKEYAKDEAKTMSEEEAKRRAKKYKEKVLLSELSEEEQKMIKEAEEKLVRTILKYVEEAAK
B24: E61W (designed binder)
chain: SMEEEVEKAAKEYEKKKKEAIEKHLEKLKAKDKEAAERFLKELEEAAKEYAKDEAKTMSEWEAKRRAKKYKEKVLLSELSEEEQKEIKEAEEKLVRTILKYVEEAAK
B25: K31N (designed binder)
chain: SMEEEVEKAAKEYEKKKKEAIEKHLEKLKANDKEAAERFLKELEEAAKEYAKDEAKTMSEEEAKRRAKKYKEKVLLSELSEEEQKEIKEAEEKLVRTILKYVEEAAK
B26: A90C (designed binder)
chain: SMEEEVEKAAKEYEKKKKEAIEKHLEKLKAKDKEAAERFLKELEEAAKEYAKDEAKTMSEEEAKRRAKKYKEKVLLSELSEEEQKEIKECEEKLVRTILKYVEEAAK
B27: E37D (designed binder)
chain: SMEEEVEKAAKEYEKKKKEAIEKHLEKLKAKDKEAADRFLKELEEAAKEYAKDEAKTMSEEEAKRRAKKYKEKVLLSELSEEEQKEIKEAEEKLVRTILKYVEEAAK
B28: E3C (designed binder)
chain: SMCEEVEKAAKEYEKKKKEAIEKHLEKLKAKDKEAAERFLKELEEAAKEYAKDEAKTMSEEEAKRRAKKYKEKVLLSELSEEEQKEIKEAEEKLVRTILKYVEEAAK
B29: E22Q (designed binder)
chain: SMEEEVEKAAKEYEKKKKEAIQKHLEKLKAKDKEAAERFLKELEEAAKEYAKDEAKTMSEEEAKRRAKKYKEKVLLSELSEEEQKEIKEAEEKLVRTILKYVEEAAK
B30: K41P (designed binder)
chain: SMEEEVEKAAKEYEKKKKEAIEKHLEKLKAKDKEAAERFLPELEEAAKEYAKDEAKTMSEEEAKRRAKKYKEKVLLSELSEEEQKEIKEAEEKLVRTILKYVEEAAK
B31: Y50P (designed binder)
chain: SMEEEVEKAAKEYEKKKKEAIEKHLEKLKAKDKEAAERFLKELEEAAKEPAKDEAKTMSEEEAKRRAKKYKEKVLLSELSEEEQKEIKEAEEKLVRTILKYVEEAAK
B32: L43D (designed binder)
chain: SMEEEVEKAAKEYEKKKKEAIEKHLEKLKAKDKEAAERFLKEDEEAAKEYAKDEAKTMSEEEAKRRAKKYKEKVLLSELSEEEQKEIKEAEEKLVRTILKYVEEAAK
B33: A90T (designed binder)
chain: SMEEEVEKAAKEYEKKKKEAIEKHLEKLKAKDKEAAERFLKELEEAAKEYAKDEAKTMSEEEAKRRAKKYKEKVLLSELSEEEQKEIKETEEKLVRTILKYVEEAAK

Biological target: T1, TNFR1
Assay: yeast display SC50

Compared with B1, B2 is 26-fold higher in “apparent Kd (screen)” value: 0.446 nM for the first, 11.4 nM for the second.

First: B3
Second: B4
The “apparent Kd (screen)” value of the first is 16-fold higher: 11.4 nM for the first, 0.718 nM for the second.

Going from B5 to B6, the “apparent Kd (screen)” value rises from 0.539 nM to 2.73 nM (5.1-fold).

Going from B7 to B8, the “apparent Kd (screen)” value falls from 12.5 nM to 1.05 nM (12-fold).

Going from B9 to B10, the “apparent Kd (screen)” value falls from 3 nM to 0.49 nM (6.1-fold).

Going from B11 to B12, the “apparent Kd (screen)” value falls from 7.78 nM to 0.869 nM (9-fold).

Compared with B13, B14 is 23-fold lower in “apparent Kd (screen)” value: 11.4 nM for the first, 0.49 nM for the second.

Going from B15 to B16, the “apparent Kd (screen)” value rises from 0.49 nM to 0.79 nM (1.6-fold).

B17 and B18 are within 1.5-fold of each other in “apparent Kd (screen)” value: 1.16 nM for the first, 0.79 nM for the second.

B19 and B20 are within 1.5-fold of each other in “apparent Kd (screen)” value: 0.869 nM for the first, 0.593 nM for the second.

Going from B21 to B22, the “apparent Kd (screen)” value falls from 22.2 nM to 1.86 nM (12-fold).

First: B23
Second: B24
The “apparent Kd (screen)” value of the first is 2.1-fold lower: 0.869 nM for the first, 1.86 nM for the second.

B25 and B26 are within 1.5-fold of each other in “apparent Kd (screen)” value: 0.79 nM for the first, 0.593 nM for the second.

Compared with B27, B28 is 13-fold higher in “apparent Kd (screen)” value: 0.539 nM for the first, 7.07 nM for the second.

Compared with B29, B30 is 3.5-fold higher in “apparent Kd (screen)” value: 0.718 nM for the first, 2.48 nM for the second.

B31 and B32 are within 1.5-fold of each other in “apparent Kd (screen)” value: 4.39 nM for the first, 6.43 nM for the second.

In the case of B33, the “apparent Kd (screen)” value is reported as 0.593 nM.
